± gives the uncertainty stated by the source.
Test: self-splicing fitness, log relative to wild type (ln ratio); higher = more splicing; Tetrahymena group I intron in knt gene, E. coli kanamycin selection, DiMSum; sequences stand for … in CUCUCU…GGAGGGAAAAGUUAUCAGGCAUGCACCUGGUAGCUAGUCUUUAAACCAAUAGAUUGCAUCGGUUUAAAAGGCAAGACCGUCAAAUUGCGGGAAAGGGGUCAACAGCCGUUCAGUACCAAGUCUCAGGGGAAACUUUGAGAUGGCCUUGCAAAGGGUAUGGUAAUAAGCUGACGGACAUGGUCCUAACCACGCAGCCAAGUCCUAAGUCAACAGAUCUUCUGUUGAUAUGGAUGCAGUUCACAGACUAAAUGUCGGUCGGGGAAGAUGUAUUCUUCUCAUAAGAUAUAGUCGGACCUCUCCUUAAUGGGAGCUAGCGGAUGAAGUGAUGCAACACUGGAGCCGCUGGGAACUAAUUUGUAUGCGAAAGUAUAUUGAUUAGUUUUGGAGUACUCGUGGUCG
In short: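 DiMSum derived fitness as the error-weighted combination of fold changes across replicates, kanamycin versus no kanamycin, normalised to wild type. E. coli BL21(DE3) held the library, which randomised all eight P1ex-region intron nucleotides within the knt kanamycin-resistance gene on pET-22b(+). Six replicate transformations grew overnight at 37°C or 30°C on LB agar with or without 25 μg/mL kanamycin, also containing 100 μg/mL carbenicillin, 50 μM IPTG and 0.2% rhamnose, and pooled colonies were amplicon-sequenced on an Illumina HiSeq 2500.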

Row | Sequence | self-splicing fitness (ln) (30 °C) | self-splicing fitness (ln) (37 °C)
1 | UGACAGCAAUAUUACGAUUC | -3.35 ± 0.17 | -2.09 ± 0.14
2 | UAACAGCAAUAUUACGUACC | -0.513 ± 0.19 | -1.7 ± 0.24
3 | UAUCAGCAAUAUUACGCAAU | -1.96 ± 0.11 | -0.74 ± 0.1
4 | CUUAAGCAAUAUUACGUAAU | -2.96 ± 0.13 | -1.56 ± 0.12
5 | UGUUAGCAAUAUUACGGACA | -1.59 ± 0.23 | -0.73 ± 0.2
6 | CCGGAGCAAUAUUACGUGCG | -1.42 ± 0.077 | -0.676 ± 0.091
7 | AUCUAGCAAUAUUACGACGC | -0.785 ± 0.089 | -0.226 ± 0.13
8 | GAAUAGCAAUAUUACGGCCG | -0.339 ± 0.18 | -0.0585 ± 0.21
9 | CCAGAGCAAUAUUACGUAAU | -3.66 ± 0.23 | -3.18 ± 0.3
10 | UGCCAGCAAUAUUACGCCAA | -1.24 ± 0.15 | -1.8 ± 0.21
11 | AAGAAGCAAUAUUACGUAGG | -2.09 ± 0.082 | -1.14 ± 0.12
12 | UCCGAGCAAUAUUACGUACA | -2.89 ± 0.33 | –
13 | AUGAAGCAAUAUUACGUAUG | -1.78 ± 0.082 | -1.26 ± 0.098
14 | AUAUAGCAAUAUUACGGUGC | -2.77 ± 0.38 | -1.94 ± 0.27
15 | UUGCAGCAAUAUUACGAUAC | – | -1.74 ± 0.47
16 | GGACAGCAAUAUUACGGAAU | -1.19 ± 0.089 | -0.191 ± 0.12
17 | CAAGAGCAAUAUUACGCAUC | -3.5 ± 0.29 | -0.397 ± 0.39
18 | CAUGAGCAAUAUUACGAGGG | -3.79 ± 0.22 | -1.03 ± 0.14
19 | CAUUAGCAAUAUUACGGAGC | -2.94 ± 0.4 | -2.04 ± 0.23
20 | AUAGAGCAAUAUUACGGCUA | 0.361 ± 0.077 | 0.0589 ± 0.098
21 | CGAAAGCAAUAUUACGGGAC | – | -2.59 ± 0.32
22 | UCCAAGCAAUAUUACGGGCA | -0.884 ± 0.06 | 0.244 ± 0.074
23 | CACGAGCAAUAUUACGUGCU | -2.25 ± 0.12 | -2.99 ± 0.22
24 | GCCAAGCAAUAUUACGAGUC | -1.58 ± 0.1 | -1.1 ± 0.12
25 | GGCUAGCAAUAUUACGGCCU | -3.3 ± 0.35 | –

Row | Sequence | self-splicing fitness (ln) (30 °C) | self-splicing fitness (ln) (37 °C)
26 | UACGAGCAAUAUUACGAAUC | -4.18 ± 0.34 | -2.03 ± 0.39
27 | ACGUAGCAAUAUUACGACCC | -0.864 ± 0.19 | 0.196 ± 0.22
28 | AGCGAGCAAUAUUACGAUUU | -1.4 ± 0.1 | -0.548 ± 0.14
29 | CUUCAGCAAUAUUACGUUUU | -1.52 ± 0.13 | -2.46 ± 0.26
30 | CUUGAGCAAUAUUACGGGAA | -3.79 ± 0.42 | -2.73 ± 0.2
31 | UGUGAGCAAUAUUACGUAAG | -1.7 ± 0.15 | -0.85 ± 0.21
32 | UCGUAGCAAUAUUACGUCGU | -4.26 ± 0.32 | -1.25 ± 0.18
33 | AGAGAGCAAUAUUACGCUCU | -2.47 ± 0.47 | –
34 | ACCGAGCAAUAUUACGCGUC | -3.17 ± 0.15 | -2.18 ± 0.22
35 | CUGUAGCAAUAUUACGGUGC | -3.58 ± 0.2 | -2.77 ± 0.19
36 | AAUUAGCAAUAUUACGGCUC | -0.532 ± 0.14 | 0.0268 ± 0.16
37 | CUGGAGCAAUAUUACGCUUA | -2.59 ± 0.45 | -2.32 ± 0.35
38 | UGUGAGCAAUAUUACGUGAG | -1.67 ± 0.14 | -1.52 ± 0.18
39 | GGAAAGCAAUAUUACGGACA | -0.913 ± 0.092 | 0.104 ± 0.097
40 | AUCCAGCAAUAUUACGCAUA | -1.19 ± 0.12 | -0.443 ± 0.12
41 | CGGAAGCAAUAUUACGACAC | – | -1.66 ± 0.38
42 | ACAUAGCAAUAUUACGGGCU | -1.4 ± 0.13 | -0.715 ± 0.16
43 | CGGUAGCAAUAUUACGUUUU | -3.83 ± 0.26 | -2.41 ± 0.19
44 | GACUAGCAAUAUUACGCUGU | -3.22 ± 0.2 | -2.83 ± 0.28
45 | CGGAAGCAAUAUUACGAUCC | -3.21 ± 0.37 | -1.42 ± 0.23
46 | GAAAAGCAAUAUUACGAAUC | -2.99 ± 0.21 | -1.04 ± 0.18
47 | UUCGAGCAAUAUUACGGUAU | -3.95 ± 0.22 | -2.22 ± 0.23
48 | CCUUAGCAAUAUUACGGCUC | -3.72 ± 0.21 | -3.45 ± 0.39
49 | UCUUAGCAAUAUUACGUGGA | -3.14 ± 0.32 | -3.03 ± 0.37
50 | GGCCAGCAAUAUUACGGGAA | -1.98 ± 0.11 | -0.198 ± 0.11

Row | Sequence | self-splicing fitness (ln) (30 °C) | self-splicing fitness (ln) (37 °C)
51 | AUGCAGCAAUAUUACGUUUC | -3.96 ± 0.18 | -3.31 ± 0.32
52 | AAGUAGCAAUAUUACGGCCU | -0.0359 ± 0.073 | -0.35 ± 0.091
53 | UAGGAGCAAUAUUACGGCUU | -4.37 ± 0.28 | -3.13 ± 0.4
54 | GCACAGCAAUAUUACGAACA | -1.42 ± 0.11 | -0.85 ± 0.1
55 | GUUUAGCAAUAUUACGUCAU | -0.998 ± 0.069 | -0.817 ± 0.099
56 | GUGGAGCAAUAUUACGUUAU | -3.23 ± 0.26 | -0.612 ± 0.14
57 | UUAAAGCAAUAUUACGGCGA | 0.464 ± 0.17 | 0.659 ± 0.21
58 | AUAGAGCAAUAUUACGUAGU | -1.69 ± 0.12 | -0.153 ± 0.15
59 | AAGCAGCAAUAUUACGCGUA | -1.57 ± 0.11 | -0.515 ± 0.1
60 | AUAAAGCAAUAUUACGAACC | -1.28 ± 0.18 | -0.77 ± 0.25
61 | ACACAGCAAUAUUACGGAUC | -2.94 ± 0.12 | -2.1 ± 0.15
62 | AGUUAGCAAUAUUACGCGUA | -1.77 ± 0.22 | -0.709 ± 0.15
63 | CGGUAGCAAUAUUACGACUC | -1.01 ± 0.32 | 1.23 ± 0.43
64 | UGAAAGCAAUAUUACGAUCA | -0.309 ± 0.084 | -0.381 ± 0.1
65 | CUCAAGCAAUAUUACGCCGU | -3.42 ± 0.17 | -1.88 ± 0.15
66 | UACAAGCAAUAUUACGCUGG | -2.54 ± 0.15 | -1.87 ± 0.15
67 | CCGUAGCAAUAUUACGCAGU | -2.54 ± 0.18 | -2.6 ± 0.27
68 | UUUCAGCAAUAUUACGUGGG | -2.4 ± 0.14 | -1.95 ± 0.12
69 | GGGAAGCAAUAUUACGUAUC | -1.43 ± 0.074 | -1.03 ± 0.11
70 | AUUCAGCAAUAUUACGGCGU | 0.256 ± 0.057 | 0.488 ± 0.074
71 | CGAUAGCAAUAUUACGAAAC | -1.44 ± 0.32 | –
72 | GACGAGCAAUAUUACGUGAC | -2.77 ± 0.31 | -1.48 ± 0.26
73 | AUUGAGCAAUAUUACGUCUU | -1.39 ± 0.12 | -0.607 ± 0.14
74 | CCUUAGCAAUAUUACGGUGC | -3.75 ± 0.19 | -3.01 ± 0.25
75 | ACCAAGCAAUAUUACGUUAU | -2.95 ± 0.087 | -2.04 ± 0.093

Row | Sequence | self-splicing fitness (ln) (30 °C) | self-splicing fitness (ln) (37 °C)
76 | GGCAAGCAAUAUUACGGGCG | 0.0849 ± 0.086 | -0.132 ± 0.096
77 | GUCGAGCAAUAUUACGUAGA | -2.65 ± 0.17 | -1.88 ± 0.24
78 | UAGAAGCAAUAUUACGAUUA | -0.441 ± 0.08 | -0.0749 ± 0.093
79 | ACCUAGCAAUAUUACGCUCA | -1.71 ± 0.14 | -0.169 ± 0.17
80 | GCCUAGCAAUAUUACGUGUC | -1.13 ± 0.056 | -0.843 ± 0.058
81 | CUCUAGCAAUAUUACGUAAA | -3.71 ± 0.35 | -0.971 ± 0.17
82 | CAUGAGCAAUAUUACGUAGG | -1.82 ± 0.08 | -1.46 ± 0.093
83 | UAAAAGCAAUAUUACGUCUU | -0.765 ± 0.058 | -0.487 ± 0.076
84 | GCUAAGCAAUAUUACGCACG | -1.84 ± 0.14 | -0.0584 ± 0.14
85 | AGUUAGCAAUAUUACGUACU | -1.16 ± 0.13 | -0.298 ± 0.12
86 | CCUAAGCAAUAUUACGGGGU | -3.28 ± 0.17 | -2.82 ± 0.17
87 | UUGUAGCAAUAUUACGGGCG | -1.05 ± 0.14 | 0.346 ± 0.2
88 | CCGCAGCAAUAUUACGCCAU | -3.66 ± 0.15 | -3.07 ± 0.19
89 | UAGGAGCAAUAUUACGUUCG | -0.918 ± 0.2 | -0.576 ± 0.19
90 | UAACAGCAAUAUUACGAAAA | -3.2 ± 0.21 | -1.18 ± 0.15
91 | CCAAAGCAAUAUUACGGGUG | -1.01 ± 0.053 | -0.233 ± 0.085
92 | GGUCAGCAAUAUUACGAAUA | -0.866 ± 0.13 | -0.645 ± 0.14
93 | GCUCAGCAAUAUUACGUUAA | -1.32 ± 0.17 | -1.28 ± 0.16
94 | GUGUAGCAAUAUUACGGGUC | -2.47 ± 0.2 | -2.49 ± 0.28
95 | CGCUAGCAAUAUUACGGCGG | -1.68 ± 0.089 | -0.662 ± 0.11
96 | GAUGAGCAAUAUUACGUCAC | -3.62 ± 0.4 | -2.47 ± 0.26
97 | CGGCAGCAAUAUUACGUAUC | -3.9 ± 0.33 | -2.86 ± 0.27
